Measurements from paper PMC4674489.

Target: GST-PTN(60-110) fusion protein (human)
Assay: pull-down

Sequence of GST-PTN(60-110) fusion protein (human) (P21246 60-110): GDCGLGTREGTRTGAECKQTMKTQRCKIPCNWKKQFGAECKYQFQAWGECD

Q: With “Neuropilin-1 (NRP-1), endogenous (from UniProt O14786 22-923) (receptor)” as the substance, how does the NRP-1 pulled down, percent of that with GST-PTN(1-136) read?
A: 45%
